Laboratory results as given in patent US20260258125A1 (NONA BIOSCIENCES SUZHOU, published 2026).

T1: human CEACAM6 on 293T cells (293T-huCEACAM6 cells) (human, UniProt P40199 35-320)
T1 construct: whole, on cells
T1 sequence (looked up): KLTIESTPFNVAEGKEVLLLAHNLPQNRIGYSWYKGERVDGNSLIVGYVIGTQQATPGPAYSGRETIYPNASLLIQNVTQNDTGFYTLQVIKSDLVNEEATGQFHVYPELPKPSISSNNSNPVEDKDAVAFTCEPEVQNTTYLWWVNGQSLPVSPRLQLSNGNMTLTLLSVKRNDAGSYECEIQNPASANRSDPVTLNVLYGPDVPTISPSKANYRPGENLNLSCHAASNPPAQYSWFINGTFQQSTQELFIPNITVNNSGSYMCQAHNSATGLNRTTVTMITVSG

T2: human CEACAM6 protein (human, UniProt P40199 35-320)
T2 construct: also called huCEACAM6
T2 sequence (looked up): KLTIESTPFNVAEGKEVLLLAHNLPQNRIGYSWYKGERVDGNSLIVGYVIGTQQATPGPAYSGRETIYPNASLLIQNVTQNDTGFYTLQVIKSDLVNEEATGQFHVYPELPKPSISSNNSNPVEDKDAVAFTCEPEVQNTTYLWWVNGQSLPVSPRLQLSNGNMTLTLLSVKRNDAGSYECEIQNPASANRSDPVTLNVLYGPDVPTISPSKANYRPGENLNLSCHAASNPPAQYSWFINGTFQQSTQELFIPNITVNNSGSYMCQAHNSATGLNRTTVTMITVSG

T3: human CEACAM8 protein (human, UniProt P31997 35-320)
T3 construct: Bought protein; also called huCEACAM8
T3 sequence (looked up): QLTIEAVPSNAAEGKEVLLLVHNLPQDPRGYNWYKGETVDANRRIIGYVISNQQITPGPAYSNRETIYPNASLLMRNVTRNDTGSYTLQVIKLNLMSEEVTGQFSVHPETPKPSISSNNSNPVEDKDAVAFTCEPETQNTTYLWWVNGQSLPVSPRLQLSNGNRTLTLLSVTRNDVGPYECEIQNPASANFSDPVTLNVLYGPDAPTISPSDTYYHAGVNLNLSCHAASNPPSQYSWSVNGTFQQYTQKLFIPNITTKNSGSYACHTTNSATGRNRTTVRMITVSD

T4: human CEACAM3 protein (human, UniProt P40198 35-155)
T4 construct: Bought protein; also called huCEACAM3
T4 sequence (looked up): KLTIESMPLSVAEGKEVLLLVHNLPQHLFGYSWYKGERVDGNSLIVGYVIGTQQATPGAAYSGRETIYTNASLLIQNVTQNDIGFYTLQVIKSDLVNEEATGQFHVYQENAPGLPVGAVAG

T5: human CEACAM1 protein (human, UniProt P13688 35-428)
T5 construct: also called huCEACAM1
T5 sequence (looked up): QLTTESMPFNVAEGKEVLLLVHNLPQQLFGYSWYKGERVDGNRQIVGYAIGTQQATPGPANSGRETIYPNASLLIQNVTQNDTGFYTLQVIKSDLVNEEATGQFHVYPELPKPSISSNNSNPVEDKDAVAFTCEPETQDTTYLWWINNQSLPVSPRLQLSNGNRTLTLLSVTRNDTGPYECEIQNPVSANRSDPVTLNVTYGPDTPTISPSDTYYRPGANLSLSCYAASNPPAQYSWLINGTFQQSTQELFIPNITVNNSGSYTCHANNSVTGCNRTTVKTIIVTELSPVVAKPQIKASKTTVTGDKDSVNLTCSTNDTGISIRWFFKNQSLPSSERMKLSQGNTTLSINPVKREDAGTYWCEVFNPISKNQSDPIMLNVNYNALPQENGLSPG

T6: recombinant human CEACAM6 Fc-tag protein (human, UniProt P40199 35-320, limits assumed)
T6 construct: also called huCEACAM6 (Octet); not shown: Fc tag
T6 sequence (looked up): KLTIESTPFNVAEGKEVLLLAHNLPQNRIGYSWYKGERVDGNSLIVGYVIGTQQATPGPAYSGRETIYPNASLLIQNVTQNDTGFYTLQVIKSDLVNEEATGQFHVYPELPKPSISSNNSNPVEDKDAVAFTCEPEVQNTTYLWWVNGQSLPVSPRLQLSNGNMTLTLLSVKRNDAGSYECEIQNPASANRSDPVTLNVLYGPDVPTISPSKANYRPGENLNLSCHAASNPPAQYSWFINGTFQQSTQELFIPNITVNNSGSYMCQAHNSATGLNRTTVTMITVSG

T7: human CEACAM5 protein (human, UniProt P06731 35-685)
T7 construct: also called huCEACAM5
T7 sequence (looked up): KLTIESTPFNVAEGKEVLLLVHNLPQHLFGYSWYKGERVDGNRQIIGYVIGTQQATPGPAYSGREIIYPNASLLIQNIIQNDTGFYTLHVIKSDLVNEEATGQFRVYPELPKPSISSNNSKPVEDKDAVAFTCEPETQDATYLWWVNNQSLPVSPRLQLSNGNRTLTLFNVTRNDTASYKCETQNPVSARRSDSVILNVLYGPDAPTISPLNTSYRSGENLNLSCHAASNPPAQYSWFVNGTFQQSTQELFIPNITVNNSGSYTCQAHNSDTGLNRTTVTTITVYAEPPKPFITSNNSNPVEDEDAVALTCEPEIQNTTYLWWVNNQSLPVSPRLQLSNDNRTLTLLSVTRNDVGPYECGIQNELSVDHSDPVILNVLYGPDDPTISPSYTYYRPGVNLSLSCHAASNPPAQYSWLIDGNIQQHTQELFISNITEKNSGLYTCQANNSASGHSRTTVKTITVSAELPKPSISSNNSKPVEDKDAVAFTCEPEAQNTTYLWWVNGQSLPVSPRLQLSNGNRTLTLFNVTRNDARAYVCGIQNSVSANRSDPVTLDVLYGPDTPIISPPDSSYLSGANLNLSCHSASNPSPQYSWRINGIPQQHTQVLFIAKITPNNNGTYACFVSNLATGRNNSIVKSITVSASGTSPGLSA


What was measured:
[1] = target: T1, human CEACAM6 on 293T cells …; experiment: flow cytometry on 293T-huCEACAM6 cells
Experimental: (§1) Binding of recombinant anti-CEACAM5/6 dual-binding antibodies against human or cynomolgus CEACAM5 or CEACAM6 stable cells were detected by flow cytometry. […] Anti-CEACAM5/6 dual-binding antibodies were incubated with the stable cell lines. Anti-CEACAM5/6 dual-binding antibodies were serially diluted in staining buffer (PBS containing 2% FBS). 50 μL of diluted antibody solution was added to 50 μL of cell suspension containing 1-2×10⁵ cells and incubated at 4° C. for 1 hour. […] After 1-hour incubation at 4° C., cells were washed twice and run on a flow cytometer. […] The results were shown in FIGS. 8-10 and Tables 6 below.

[2] = target: T2, human CEACAM6 protein; experiment: ELISA, antigen coated on plate
From the text: (§2) Binding of recombinant anti-CEACAM5/6 dual-binding monoclonal antibodies against human and cynomolgus CEACAM5, and human CEACAM6 (Uniprot P40199), human CEACAM 1, 3 (NP_001806.2, Sino Biological 11933-H08H) and 8 (NP_001807.2, Acro Bio CE8-H5224) were detected by ELISA. Anti-CEACAM5/6 dual-antibodies were serially diluted in staining buffer (PBS containing 2% FBS). […] ELISA was used to test the binding between antibody containing supernatant or purified antibodies and the antigen. Briefly, the antigens were coated on a 96-well high binding plate overnight at 4° C. The plate was washed with PBST three times, incubated with blocking buffer (2% Bovine Serum Albumin) for one hour at 37° C., washed with PBST three times and incubated with antibody containing supernatant or purified antibodies at desired dilutions or concentrations for one hour at 37° C. A secondary antibody, anti-human Fc-HRP (Jackson Laboratory, 109-035-097) was used for detection of the targeted antibody. TMB and stopping solution were used for detection of HRP signal. The HRP signal was read on a SPECTRAMAX plate reader.

[3] = target: T3, human CEACAM8 protein; experiment: ELISA, antigen coated on plate
From the text: as §2

[4] = target: T4, human CEACAM3 protein; experiment: ELISA, antigen coated on plate
From the text: as §2

[5] = target: T8, cyno CEACAM5 protein (cynomolgus monkey); experiment: ELISA, antigen coated on plate
T8 construct: also called cynomolgus CEACAM5
From the text: as §2

[6] = target: T5, human CEACAM1 protein; experiment: ELISA, antigen coated on plate
From the text: as §2

[7] = target: T6, recombinant human CEACAM6 Fc-tag protein; experiment: Octet (BLI), antibody on AHC sensor, antigen in solution
Experimental: Binding kinetics of recombinant anti-CEACAM5/6 antibodies to CEACAM5 and CEACAM6 were analyzed by Octet. In Octet analysis, recombinant human CEACAM5 Fc-tag protein (#Uniprot P06731) or CEACAM6 Fc-tag protein (Uniprot P40199) was serially diluted with 1×kinetic buffer (Fortebio). Anti-CEACAM5/6 dual-binding antibodies were diluted to 5 μg/mL. Then diluted antibodies, antigen and regeneration buffer (10 mM glycine pH 1.75) were added to 96-well plates (Greiner). Rate constants for association and dissociation were measured using AHC sensor (Fortebio). The sensor surface was regenerated after each binding experiment with regeneration buffer. The traces were processed using ForteBio Data Analysis Software (version 8.0, Pall ForteBio, CA, USA).

[8] = target: T1, human CEACAM6 on 293T cells …; experiment: cell-based or functional assay
[9] = target: T9, cynomolgus CEACAM5 on CHO-K1 cells (CHOK1-cyno CEACAM5 cells) (cynomolgus monkey); experiment: flow cytometry on CHOK1-cyno CEACAM5 cells
T9 construct: whole, on cells; also called CHOK1-cynoCECAM5
Experimental: as §1

[10] = target: T1, human CEACAM6 on 293T cells …; experiment: flow cytometry on 293T-huCEACAM6 cells, Alexa Fluor 488 anti-human IgG, MFI
Experimental: as §1

[11] = target: T7, human CEACAM5 protein; experiment: ELISA, antigen coated on plate
From the text: as §2

[12] = target: T1, human CEACAM6 on 293T cells …; experiment: flow cytometry on 293T-huCEACAM6 cells with against without 100 nM soluble CEACAM6

binding result [1]	binding result [2]	binding result [3]	binding result [4]	EC50 [5]	binding result [6]	binding result [7]	Internalization of pHAb-dye-labelled antibody, MFI (37° C.-4° C.)/DAR [8]	EC50 [9]	EC50 (read off the curve) [10]	EC50 [2]	binding result [11]	fold change of EC50 at the presence of 100 nM soluble protein [12]	Binder
no binding	no binding	no binding	no binding	0.01 nM	no binding	no binding	1260	33.4 nM					PR303561 (Tusamitamab) (antibody, human IgG1, kappa, V domains shown, also called PR003561; SAR408377) VH: EVQLQESGPGLVKPGGSLSLSCAASGFVFSSYDMSWVRQTPERGLEWVAYISSGGGITYAPSTVKGRFTVSRDNAKNTLYLQMNSLTSEDTAVYYCAAHYFGSSGPFAYWGQGTLVTVSS VL: DIQMTQSPASLSASVGDRVTITCRASENIFSYLAWYQQKPGKSPKLLVYNTRTLAEGVPSRFSGSGSGTDFSLTISSLQPEDFATYYCQHHYGTPFTFGSGTKLEIKR
		no binding	no binding		no binding				~0.6 nM	0.01 nM	no binding	7.3 fold	PR303563 (Tinurilimab) (antibody, human IgG2, kappa, V domains shown, also called BAY-1834942) VH: QVTLRESGPALVKPTQTLTLTCTFSGFSLSTYGIGVGWIRQPPGKALEWLAHIWWNDNKYYSTSLKTRLTISKDTSKNQVVLTMTNMDPVDTATYYCARISLPYFDYWGQGTTLTVSS VL: DIQLTQSPSFLSASVGDRVTITCKASQNVGTAVAWYQQKPGKAPKLLIYSASNRYTGVPSRFSGSGSGTEFTLTISSLQPEDFATYYCQQYSSYPLTFGGGTKVEIKR
